Patent publication US12281155

Legend:
[1] = target: T1, recombinant SARS-CoV-2 Spike RBD domain, Wuhan (SARS-CoV-2); assay: competition ELISA, blocking of RBD binding to ACE2 ectodomain; conditions: remark: other sources report otherwise
[2] = target: T1, recombinant SARS-CoV-2 Spike RBD …; assay: ELISA on coated RBD; conditions: remark: other sources report otherwise

B1: SPK002 antibody (parental version Cv2.3194 described in WO 2022/228827) (antibody, V domains shown)
VH: EVQLVESGGGLIQPGGSLRLSCAASGITVTSNYMSWVRQAPGKGLEWVSVIYPGGSTFYADSVKGRFTISRDNSKNTLYLQMNSLRAEDTAVYYCARDLVVYGMDVWGQGTTVTVS
VL: EIVLTQSPGTLSLSPGERATLSCRASQSVSSSYLAWYQQKPGQAPRLLIYGASSRATGIPGRFSGSGSGTDFTLTISRLEPEDFAIYYCQQGVTFGGGTKVEIK
Blocking % [1]: 88% | Binding AUC [2]: 34
